Measured values taken from PMC2912409.

Experiments:
Assay in all cases: ITC
DB_S193A = DB_S193A (human, UniProt P03372 176-250, S193A)
DB_R211A = DB_R211A (human, UniProt P03372 176-250, R211A)
DB_AA = DB_AA (human, UniProt P03372 176-250, H196A;E203A)
DB_K206A = DB_K206A (human, UniProt P03372 176-250, K206A)
DB_H196A = DB_H196A (human, UniProt P03372 176-250, H196A)
DB_S201A = DB_S201A (human, UniProt P03372 176-250, S201A)
DB_D190A = DB_D190A (human, UniProt P03372 176-250, D190A)
DB_Y197A = DB_Y197A (human, UniProt P03372 176-250, Y197A)
DB_K210A = DB_K210A (human, UniProt P03372 176-250, K210A)
DB_E203A = DB_E203A (human, UniProt P03372 176-250, E203A)
DB_E203A, sequence (P03372 176-250 E203A): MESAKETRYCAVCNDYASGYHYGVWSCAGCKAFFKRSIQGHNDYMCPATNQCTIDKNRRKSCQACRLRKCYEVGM

DB_R211A, sequence (P03372 176-250 R211A): as the sequence (P03372 176-250 E203A) above, with A28E, R36A counted along it
DB_S193A, sequence (P03372 176-250 S193A): as the sequence (P03372 176-250 E203A) above, with S18A, A28E counted along it
DB_K206A, sequence (P03372 176-250 K206A): as the sequence (P03372 176-250 E203A) above, with A28E, K31A counted along it
DB_S201A, sequence (P03372 176-250 S201A): as the sequence (P03372 176-250 E203A) above, with S26A, A28E counted along it
DB_H196A, sequence (P03372 176-250 H196A): as the sequence (P03372 176-250 E203A) above, with H21A, A28E counted along it
DB_Y197A, sequence (P03372 176-250 Y197A): as the sequence (P03372 176-250 E203A) above, with Y22A, A28E counted along it
DB_D190A, sequence (P03372 176-250 D190A): as the sequence (P03372 176-250 E203A) above, with D15A, A28E counted along it
DB_AA, sequence (P03372 176-250 H196A/E203A): as the sequence (P03372 176-250 E203A) above, with H21A counted along it
DB_K210A, sequence (P03372 176-250 K210A): as the sequence (P03372 176-250 E203A) above, with A28E, K35A counted along it

B1: ERE duplex (dsDNA)
DNA 1: CCCAGGTCACAGTGACCTGCG
DNA 2: CGCAGGTCACTGTGACCTGGG
With B1 the Kd (DB_S193A) was 102 ± 10 nM, the Kd (DB_R211A) was 745 ± 76 nM and the Kd (DB_AA) was 387 ± 90 nM. For the same binder, the Kd (DB_K206A) was 313 ± 6 nM, the Kd (DB_H196A) was 190 ± 24 nM and the Kd (DB_S201A) was 119 ± 9 nM. For the same binder, the Kd (DB_D190A) was 67 ± 6 nM, the Kd (DB_Y197A) was 316 ± 7 nM and the Kd (DB_K210A) was 326 ± 11 nM. For the same binder, the Kd (DB_E203A) was 172 ± 48 nM.
